The text below walks through data of patent publication US20090305339A1, “Polypeptides With Laccase Activity” (VIALACTIA BIOSCIENCES (NZ) LIMITED, priority 2006, published 2009).

A word on the Km: it is the concentration of substrate that gives half-maximal velocity. Broadly, the kcat is the maximal rate divided by the concentration of active sites.

The nature of data set [1]: pH- and temperature-dependent activity and inactivation profiles. It counts as biochemical. The settings on record: sodium citrate pH 4.5, 1 mM SGZ or DMP. How it is done: FIG. 2A represents the effect of various pH values on the activity of recombinant purified RL5 laccase. The activity was measured at 40° C. using 1 mM SGZ (syringaldazine) or DMP as substrate. The buffers (100 mM) used were: citrate (pH 3.0-5.5), MES (pH 5.5-7.0), HEPES (pH 7.0-8.0), Tris-HCl (pH 8.0-9.0) and glycine-NaOH (pH 9.0-12). The activity of RL5 for DMP reached an optimum at a broad pH ranging from 3.5-9.0, being optimal at 4.0-5.0; however, it maintained more than 70% activity at pH 3.5 and 9.0 (FIG. 2A).
FIG. 2B represents the pH inactivation of purified RL5 laccase in sodium citrate pH 4.5 (indicated with “∘”) or glycine-NaOH pH 9.0 (indicated with “[…]”) over a time period of 240 min. 100% activity in the purified protein sample equals 7.2 units/mg (measured at 40° C.).
FIG. 2C represents the effect of the temperature on the activity of recombinant purified RL5 laccase. The enzyme activity was assayed at each indicated temperature in sodium citrate pH 4.5 in the presence of 1 mM SGZ or DMP. Activity was monitored at 420 nm. Protein activity increased as the temperature was raised to a maximum at ˜60° C. Therefore, RL5 is stable at high temperatures.
FIG. 2D represents the thermal inactivation of purified RL5 laccase. Purified enzyme was incubated in vials at 60° C. ([…]) or 65° C. (∘). At the indicated times, samples were withdrawn and tested for laccase activity at 40° C. by using SGZ or DMP as a substrate. 100% activity in the purified protein sample equals 17.2 units/mg.
Corresponding experiments were performed with BT4389 and YfiH under conditions as described above for FIGS. 2A to 2D (data not shown). The activity of these enzymes reached an optimum at a temperature of 52° C. (for BT4389) and 44° C. (for YfiH) and the thermal activity maintained for more than 80% at 55° C. (for BT4389) and at 50° C. (for YfiH). The activity of both enzymes reached an optimum at a pH range from 4.5 to 6.0 (for BT4389) and from 5.5 to 8.4 (for YfiH), although 80% activity maintained at pH 4.0 to 7.5 (for BT4389) and 5.0 to 9.0 (for YfiH).
(§1) Laccase activity was determined spectrophotometrically in a thermostated spectrophotometer (Perkin-Elmer) at 40° C. in 100 mM sodium citrate buffer, pH 4.5 (1 ml). The standard assay was performed at 530 nm, using SGZ as the oxidation substrate (ε530=64,000 M^−1cm^−1). The reaction was started by adding SGZ, from a stock solution in methanol, to a final concentration of 20 μM. […] Oxidation of phenol red (75 μM) was determined by the decrease in absorbance at 432 nm. The activity:pH and activity:temperature relationships were determined by incubating the enzyme:substrate mixtures at different pH values and constant temperature (40° C.), and at different temperatures (15-80° C.) and constant pH (4.5), respectively. Catalytic constants were derived by fitting the experimental data onto the Michaelis-Menten model. Control measurements without enzyme were carried out to correct for possible chemical oxidation of the substrates.

Data set [2] is described as follows: Laccase activity, guaiacol as substrate. Conditions: data not shown. Format: biochemical. As for the experimental part:
as §1

Data set [3] in a line: Oxidative reactions of various compounds (substrate preference, overall kinetics, pH range). It counts as biochemical. The settings on record: order of oxidized substrates. How it is done:
as §1

Data set [4] is described as follows: Laccase activity, spectrophotometric, SGZ as substrate. The settings on record: data not shown. Format: biochemical. How it is done: as §1
The nature of data set [5]: Laccase activity, spectrophotometric, DMP as substrate. Format: biochemical. The settings on record: data not shown. How it is done:
as §1

Data set [6] can be described thus: Laccase activity, veratryl alcohol as substrate. Conditions: data not shown. Format: biochemical. As for the experimental part:
as §1

Substrate in data set [7]: COc1cc(/C=N/N=C/c2cc(OC)c(O)c(OC)c2)cc(OC)c1O
As to the kind of experiment: Steady-state kinetics of RL5 laccase, spectrophotometric oxidation of laccase substrates. The settings on record: other: 40° C., pH 4.5, 14 nM protein, substrate 0 to 1 mM. Format: biochemical, bovine rumen metagenome.

Substrate in data set [8]: COc1cccc(OC)c1O
The description is as above. It counts as biochemical, bovine rumen metagenome. Conditions: other: 40° C., pH 4.5, 14 nM protein, substrate 0 to 1 mM.

Substrate in data set [9]: CCn1c(=NN=c2sc3cc(S(=O)(=O)O)ccc3n2CC)sc2cc(S(=O)(=O)O)ccc21
As to the kind of experiment: purified protein, by the assay type. Conditions: other: 40° C., pH 4.5, 14 nM protein, substrate 0 to 1 mM.

B1: YfiH: DUF152 domain containing hypothetical protein from Escherichia coli, Gene Bank AAG57706, identified as laccase (FIG. 13) (protein, listed as Escherichia coli)
chain: MSKLIVPQWPLPKGVAACSSTRIGGVSLPPYDSLNLGAHCGDNPDHVEENRKRLFAAGNLPSKPVWLEQVHGKDVLNLTGEPYASKRADASYSNTPGRVCAVMTADCLPVLFCNRAGTEVAAAHAGWRGLCAGVLEETVSCFADNPENILAWLGPAIGPRAFEVGAEVREAFMAVDAEASTAFIQHGDKYLADIYQLARQRLANVGVEQIFGGDRCTYTENETFFSYRRDKTTGRMASFIWLI
modifications: Description of sequence amino acid sequence of protein YfiH with unknown function DUF152 from Escherichia coli (Gene Bank accession number AAG57706) (see Fig. 13)
With B1, the “temperature optimum of activity” value in [1] was determined as 44 °C. In addition, the oxidation activity in data set [2] worked out at 0.5 units/g protein; in data set [4], 5.6 units/g protein; in [5] it was 4 units/g protein; in data set [6], 2.1 units/g protein. In [3], the substrate preference result is recorded as “SGZ>DMP>>veratryl alcohol>>guaiacol”.

B2: RL5 laccase (bovine rumen metagenome), wild type, FIG. 11 (unidentified prokaryotic organism) (protein)
chain: MIELEKLDFAKSVEGVEAFSTTRGQVDGRNAYSGVNLCDYVGDDALRVLDARLTLAMQLGVDLDDLVMPRQTHSCRVAVIDERFRALDIDEQEAALEGVDALVTRLQGIVIGVNTADCVPIVLVDSQAGIVAVSHAGWRGTVGRIAKAVVEEMCRQGATVDRIQAAMGPSICQDCFEVGDEVVEAFKKAHFNLNDIVVRNPATGKAHIDLRAANRAVLVAAGVPAANIVESQHCSRCEHTSFFSARRLGINSGRTFTGIYRK
Regarding B2, the Km in [7] worked out at 0.43 µM; in data set [8], 0.45 µM; in data set [9] it was 26.2 µM. For the same molecule, the figures for the kcat in data set [7], in data set [8] and in [9] were 663.45 s⁻¹, 1174 s⁻¹ and 18.05 s⁻¹, respectively.
